The supplement of paper PMC9112550, “Optimization of the antimicrobial peptide Bac7 by deep mutational scanning” (BMC Biology, 2022)

Tested on: Escherichia coli TOP10
Test: shrunken log2 fold change of peptide-encoding DNA abundance (4.5 h post-induction vs induction); higher = less antimicrobial activity (less host growth inhibition)
Settings: time post-induction: 4.5 h; library: site-saturation at positions 5, 18, 19, 20
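Note: peptides expressed intracellularly from a pBAD plasmid library in pooled LB shake-flask culture, induced with 0.3% L-arabinose, DNA abundance read by NGS, three biological replicates, DESeq2 with apeglm shrinkage.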

With RRIRPRPPRLPRPRPRPIPEPRP the “shrunken log2 fold change” value was 1.27.
With RRIRERPPRLPRPRPRPQQMPRP the “shrunken log2 fold change” value was -0.237.
In the case of RRIRNRPPRLPRPRPRPEVEPRP, the “shrunken log2 fold change” value is reported as 0.154.
For RRIRIRPPRLPRPRPRPPWQPRP, the “shrunken log2 fold change” value was 1.02.
RRIRNRPPRLPRPRPRPMANPRP was tested, and the “shrunken log2 fold change” value was -9.3e-05.
For RRIRLRPPRLPRPRPRPIDCPRP, the “shrunken log2 fold change” value was -0.00194.
RRIRARPPRLPRPRPRPVDMPRP was tested, and the “shrunken log2 fold change” value was -0.109.
With RRIRYRPPRLPRPRPRPCLCPRP the “shrunken log2 fold change” value was -0.453.
In the case of RRIRARPPRLPRPRPRPFVFPRP, the “shrunken log2 fold change” value is reported as 0.166.
With RRIRARPPRLPRPRPRPGEQPRP the “shrunken log2 fold change” value was 0.135.
With RRIRYRPPRLPRPRPRPISYPRP the “shrunken log2 fold change” value was -0.325.
In the case of RRIRRRPPRLPRPRPRPAKSPRP, the “shrunken log2 fold change” value is reported as 0.242.
RRIRHRPPRLPRPRPRPPMDPRP was tested, and the “shrunken log2 fold change” value was -0.309.
In the case of RRIRARPPRLPRPRPRPEPEPRP, the “shrunken log2 fold change” value is reported as 0.967.
For RRIRWRPPRLPRPRPRPNVPPRP, the “shrunken log2 fold change” value was -0.144.
With RRIRYRPPRLPRPRPRPCMWPRP the “shrunken log2 fold change” value was 0.0465.
With RRIRNRPPRLPRPRPRPPQMPRP the “shrunken log2 fold change” value was 0.234.
RRIRPRPPRLPRPRPRPNCGPRP was tested, and the “shrunken log2 fold change” value was -0.0429.
RRIRPRPPRLPRPRPRPVGVPRP was tested, and the “shrunken log2 fold change” value was 0.52.
With RRIRQRPPRLPRPRPRPKFHPRP the “shrunken log2 fold change” value was -0.0648.
For RRIRERPPRLPRPRPRPAWSPRP, the “shrunken log2 fold change” value was 0.233.
RRIRWRPPRLPRPRPRPIPLPRP was tested, and the “shrunken log2 fold change” value was -0.121.
With RRIRLRPPRLPRPRPRPTNAPRP the “shrunken log2 fold change” value was 0.00567.
RRIRHRPPRLPRPRPRPSAGPRP was tested, and the “shrunken log2 fold change” value was -0.182.
For RRIRGRPPRLPRPRPRPSWFPRP, the “shrunken log2 fold change” value was 0.373.
In the case of RRIRPRPPRLPRPRPRPVVDPRP, the “shrunken log2 fold change” value is reported as -0.107.
With RRIRSRPPRLPRPRPRPHGRPRP the “shrunken log2 fold change” value was -0.0222.
For RRIRPRPPRLPRPRPRPEHPPRP, the “shrunken log2 fold change” value was 0.231.
In the case of RRIRRRPPRLPRPRPRPFMHPRP, the “shrunken log2 fold change” value is reported as 0.0444.
In the case of RRIRGRPPRLPRPRPRPMSFPRP, the “shrunken log2 fold change” value is reported as 0.308.
For RRIRLRPPRLPRPRPRPGRQPRP, the “shrunken log2 fold change” value was 0.207.
For RRIRWRPPRLPRPRPRPIEAPRP, the “shrunken log2 fold change” value was 0.199.
In the case of RRIRKRPPRLPRPRPRPCKAPRP, the “shrunken log2 fold change” value is reported as 0.0525.
With RRIRLRPPRLPRPRPRPCNAPRP the “shrunken log2 fold change” value was -0.129.
RRIRIRPPRLPRPRPRPLKLPRP was tested, and the “shrunken log2 fold change” value was -0.838.
For RRIRSRPPRLPRPRPRPMLPPRP, the “shrunken log2 fold change” value was -0.078.
With RRIRGRPPRLPRPRPRPHSDPRP the “shrunken log2 fold change” value was 0.204.
With RRIRDRPPRLPRPRPRPTMLPRP the “shrunken log2 fold change” value was 0.138.
In the case of RRIRWRPPRLPRPRPRPVPDPRP, the “shrunken log2 fold change” value is reported as -0.101.
In the case of RRIRPRPPRLPRPRPRPQLNPRP, the “shrunken log2 fold change” value is reported as -0.0703.
In the case of RRIRHRPPRLPRPRPRPYETPRP, the “shrunken log2 fold change” value is reported as -0.151.
RRIRYRPPRLPRPRPRPPFHPRP was tested, and the “shrunken log2 fold change” value was -0.589.
RRIRVRPPRLPRPRPRPYQEPRP was tested, and the “shrunken log2 fold change” value was 0.00202.
For RRIRLRPPRLPRPRPRPTNYPRP, the “shrunken log2 fold change” value was -0.251.
With RRIRHRPPRLPRPRPRPNQCPRP the “shrunken log2 fold change” value was -0.201.
RRIRQRPPRLPRPRPRPKGGPRP was tested, and the “shrunken log2 fold change” value was 0.0347.
For RRIRNRPPRLPRPRPRPNIRPRP, the “shrunken log2 fold change” value was -0.103.
RRIRIRPPRLPRPRPRPAGCPRP was tested, and the “shrunken log2 fold change” value was -0.0691.
RRIRFRPPRLPRPRPRPPRQPRP was tested, and the “shrunken log2 fold change” value was 0.828.
In the case of RRIRQRPPRLPRPRPRPGHRPRP, the “shrunken log2 fold change” value is reported as 0.0349.
With RRIRCRPPRLPRPRPRPCCCPRP the “shrunken log2 fold change” value was -0.224.
With RRIRIRPPRLPRPRPRPIIMPRP the “shrunken log2 fold change” value was -0.34.
In the case of RRIRRRPPRLPRPRPRPDVGPRP, the “shrunken log2 fold change” value is reported as -0.042.
For RRIRIRPPRLPRPRPRPRSTPRP, the “shrunken log2 fold change” value was -0.391.
In the case of RRIRHRPPRLPRPRPRPSMCPRP, the “shrunken log2 fold change” value is reported as -0.448.
RRIRYRPPRLPRPRPRPAVVPRP was tested, and the “shrunken log2 fold change” value was -0.149.
With RRIRIRPPRLPRPRPRPNHMPRP the “shrunken log2 fold change” value was -0.361.
For RRIRLRPPRLPRPRPRPQPAPRP, the “shrunken log2 fold change” value was 0.294.
With RRIRPRPPRLPRPRPRPDMMPRP the “shrunken log2 fold change” value was -0.0321.
RRIRWRPPRLPRPRPRPLVIPRP was tested, and the “shrunken log2 fold change” value was -0.0698.
RRIRQRPPRLPRPRPRPKMRPRP was tested, and the “shrunken log2 fold change” value was 0.0141.
RRIRPRPPRLPRPRPRPLVKPRP was tested, and the “shrunken log2 fold change” value was -0.0409.
RRIRERPPRLPRPRPRPHWCPRP was tested, and the “shrunken log2 fold change” value was 0.0281.
With RRIRCRPPRLPRPRPRPSWRPRP the “shrunken log2 fold change” value was -0.0716.
RRIRMRPPRLPRPRPRPRTIPRP was tested, and the “shrunken log2 fold change” value was 0.229.
With RRIRPRPPRLPRPRPRPITTPRP the “shrunken log2 fold change” value was -0.139.
RRIRLRPPRLPRPRPRPWTSPRP was tested, and the “shrunken log2 fold change” value was -0.384.
With RRIRARPPRLPRPRPRPATSPRP the “shrunken log2 fold change” value was 0.461.
In the case of RRIRSRPPRLPRPRPRPQGMPRP, the “shrunken log2 fold change” value is reported as -0.124.
In the case of RRIRDRPPRLPRPRPRPSYSPRP, the “shrunken log2 fold change” value is reported as -0.581.
For RRIRERPPRLPRPRPRPVYQPRP, the “shrunken log2 fold change” value was -0.0713.
For RRIRHRPPRLPRPRPRPGSPPRP, the “shrunken log2 fold change” value was -0.171.
With RRIRMRPPRLPRPRPRPKSIPRP the “shrunken log2 fold change” value was 0.301.
For RRIRPRPPRLPRPRPRPKSRPRP, the “shrunken log2 fold change” value was 0.154.
For RRIRWRPPRLPRPRPRPVIAPRP, the “shrunken log2 fold change” value was 0.037.
For RRIRARPPRLPRPRPRPTKGPRP, the “shrunken log2 fold change” value was 0.308.
In the case of RRIRVRPPRLPRPRPRPHGAPRP, the “shrunken log2 fold change” value is reported as -0.0881.
RRIRGRPPRLPRPRPRPLDKPRP was tested, and the “shrunken log2 fold change” value was 0.401.
With RRIRPRPPRLPRPRPRPECPPRP the “shrunken log2 fold change” value was 0.353.
For RRIRNRPPRLPRPRPRPMKDPRP, the “shrunken log2 fold change” value was 0.145.
RRIRYRPPRLPRPRPRPSALPRP was tested, and the “shrunken log2 fold change” value was -0.638.
For RRIRQRPPRLPRPRPRPLCCPRP, the “shrunken log2 fold change” value was -0.382.
RRIRNRPPRLPRPRPRPVHPPRP was tested, and the “shrunken log2 fold change” value was -0.0892.
RRIRCRPPRLPRPRPRPAPIPRP was tested, and the “shrunken log2 fold change” value was 1.74.
For RRIRERPPRLPRPRPRPRLEPRP, the “shrunken log2 fold change” value was -0.0353.
With RRIRRRPPRLPRPRPRPWVLPRP the “shrunken log2 fold change” value was 0.0819.
For RRIRQRPPRLPRPRPRPVRGPRP, the “shrunken log2 fold change” value was 1.97.
With RRIRQRPPRLPRPRPRPHQKPRP the “shrunken log2 fold change” value was -0.0904.
For RRIRMRPPRLPRPRPRPTMLPRP, the “shrunken log2 fold change” value was 0.0475.
With RRIRSRPPRLPRPRPRPACMPRP the “shrunken log2 fold change” value was 0.159.
RRIRTRPPRLPRPRPRPLNEPRP was tested, and the “shrunken log2 fold change” value was -0.0228.
With RRIRGRPPRLPRPRPRPHWPPRP the “shrunken log2 fold change” value was 2.63.
In the case of RRIRGRPPRLPRPRPRPQKYPRP, the “shrunken log2 fold change” value is reported as -0.0606.
RRIRDRPPRLPRPRPRPPSCPRP was tested, and the “shrunken log2 fold change” value was 0.379.
In the case of RRIRVRPPRLPRPRPRPDDCPRP, the “shrunken log2 fold change” value is reported as -0.197.
In the case of RRIRWRPPRLPRPRPRPGFMPRP, the “shrunken log2 fold change” value is reported as 0.212.
In the case of RRIRYRPPRLPRPRPRPAPVPRP, the “shrunken log2 fold change” value is reported as 0.125.
In the case of RRIRSRPPRLPRPRPRPWMTPRP, the “shrunken log2 fold change” value is reported as -0.000334.
With RRIRQRPPRLPRPRPRPTDVPRP the “shrunken log2 fold change” value was -0.194.
RRIRMRPPRLPRPRPRPYNEPRP was tested, and the “shrunken log2 fold change” value was -0.811.
RRIRNRPPRLPRPRPRPPEWPRP was tested, and the “shrunken log2 fold change” value was -0.188.
With RRIRYRPPRLPRPRPRPKIEPRP the “shrunken log2 fold change” value was -0.00459.
For RRIRQRPPRLPRPRPRPPTQPRP, the “shrunken log2 fold change” value was 0.0976.
With RRIRLRPPRLPRPRPRPLCLPRP the “shrunken log2 fold change” value was -0.392.
For RRIRRRPPRLPRPRPRPHIRPRP, the “shrunken log2 fold change” value was 0.00753.
In the case of RRIRWRPPRLPRPRPRPCKGPRP, the “shrunken log2 fold change” value is reported as -0.186.
For RRIRKRPPRLPRPRPRPISDPRP, the “shrunken log2 fold change” value was -0.0768.
For RRIRWRPPRLPRPRPRPLYDPRP, the “shrunken log2 fold change” value was -0.0701.
In the case of RRIRIRPPRLPRPRPRPAWCPRP, the “shrunken log2 fold change” value is reported as -0.0802.
In the case of RRIRNRPPRLPRPRPRPNYRPRP, the “shrunken log2 fold change” value is reported as -0.264.
With RRIRYRPPRLPRPRPRPETWPRP the “shrunken log2 fold change” value was 0.093.
With RRIRCRPPRLPRPRPRPGSSPRP the “shrunken log2 fold change” value was 0.0141.
With RRIRPRPPRLPRPRPRPYLTPRP the “shrunken log2 fold change” value was -0.689.
In the case of RRIRGRPPRLPRPRPRPEGLPRP, the “shrunken log2 fold change” value is reported as 1.06.
In the case of RRIRRRPPRLPRPRPRPPWAPRP, the “shrunken log2 fold change” value is reported as 0.729.
With RRIRQRPPRLPRPRPRPSHYPRP the “shrunken log2 fold change” value was -0.224.
For RRIRQRPPRLPRPRPRPCHTPRP, the “shrunken log2 fold change” value was -0.207.
RRIRLRPPRLPRPRPRPTPKPRP was tested, and the “shrunken log2 fold change” value was 0.137.
In the case of RRIRIRPPRLPRPRPRPHRAPRP, the “shrunken log2 fold change” value is reported as 0.0775.
With RRIRIRPPRLPRPRPRPSMTPRP the “shrunken log2 fold change” value was -0.43.
In the case of RRIRGRPPRLPRPRPRPDVPPRP, the “shrunken log2 fold change” value is reported as 0.0136.
RRIRERPPRLPRPRPRPCTIPRP was tested, and the “shrunken log2 fold change” value was -0.487.
RRIRHRPPRLPRPRPRPQTSPRP was tested, and the “shrunken log2 fold change” value was -0.264.
RRIRPRPPRLPRPRPRPDNMPRP was tested, and the “shrunken log2 fold change” value was -0.337.
In the case of RRIRARPPRLPRPRPRPLRYPRP, the “shrunken log2 fold change” value is reported as -0.00438.
